Values of other authors as cited in paper PMC11070850.

Target: mucin 1 (UniProt P15941)
Settings: 10 mM MOPS, 100 mM NaNO3, pH 7.6, room temperature, 60 min (aptamer + mucin 1 + DNA nanospheres); then CuSO4 50 min and calcein 2 min

Chain of mucin 1 (P15941 24-1158): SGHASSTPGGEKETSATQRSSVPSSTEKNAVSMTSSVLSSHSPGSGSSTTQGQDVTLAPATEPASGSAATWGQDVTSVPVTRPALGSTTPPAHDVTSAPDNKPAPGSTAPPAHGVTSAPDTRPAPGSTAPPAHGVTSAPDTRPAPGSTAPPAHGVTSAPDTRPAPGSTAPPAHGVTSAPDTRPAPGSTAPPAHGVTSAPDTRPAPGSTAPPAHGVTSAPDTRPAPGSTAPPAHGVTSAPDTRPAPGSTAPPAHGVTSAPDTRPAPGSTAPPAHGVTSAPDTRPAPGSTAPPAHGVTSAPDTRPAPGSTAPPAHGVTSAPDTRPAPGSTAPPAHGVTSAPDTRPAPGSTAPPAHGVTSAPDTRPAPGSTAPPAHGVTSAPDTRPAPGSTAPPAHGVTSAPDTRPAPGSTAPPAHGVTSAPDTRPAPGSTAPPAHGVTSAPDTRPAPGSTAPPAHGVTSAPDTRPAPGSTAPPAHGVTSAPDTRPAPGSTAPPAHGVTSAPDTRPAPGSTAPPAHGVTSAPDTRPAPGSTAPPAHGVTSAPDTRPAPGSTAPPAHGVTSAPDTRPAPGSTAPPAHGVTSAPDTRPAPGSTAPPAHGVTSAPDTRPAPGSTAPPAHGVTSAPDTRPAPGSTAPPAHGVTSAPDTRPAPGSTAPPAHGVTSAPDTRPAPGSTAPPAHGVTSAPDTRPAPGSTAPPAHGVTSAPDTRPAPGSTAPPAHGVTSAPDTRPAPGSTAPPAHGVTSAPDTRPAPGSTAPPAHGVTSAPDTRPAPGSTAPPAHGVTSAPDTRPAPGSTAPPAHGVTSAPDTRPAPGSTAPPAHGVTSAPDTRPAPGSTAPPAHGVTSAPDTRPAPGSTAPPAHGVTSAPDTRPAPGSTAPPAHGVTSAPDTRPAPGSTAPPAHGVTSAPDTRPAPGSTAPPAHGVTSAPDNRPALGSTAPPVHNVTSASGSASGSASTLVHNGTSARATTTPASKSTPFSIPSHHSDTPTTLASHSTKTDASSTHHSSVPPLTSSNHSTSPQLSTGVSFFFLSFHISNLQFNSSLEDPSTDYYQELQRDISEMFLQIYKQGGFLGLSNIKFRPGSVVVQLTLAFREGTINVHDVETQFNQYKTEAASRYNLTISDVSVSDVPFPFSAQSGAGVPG

Sequence: GCAGTTGATCCTTTGGATACCCTGG [mucin 1 aptamer]
- Kd: 0.135 nM
